Article PMC9482650, “Quantitative fragmentomics allow affinity mapping of interactomes” (Nature Communications, 2022)

T1: ARHGEF11, O15085
T1 sequence (O15085 42-136, limits assumed, looked up): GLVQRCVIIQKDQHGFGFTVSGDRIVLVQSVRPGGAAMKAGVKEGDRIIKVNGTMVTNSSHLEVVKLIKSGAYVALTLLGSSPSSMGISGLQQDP

T2: DFNB31_2, Q9P202
T2 sequence (Q9P202 274-371, limits assumed, looked up): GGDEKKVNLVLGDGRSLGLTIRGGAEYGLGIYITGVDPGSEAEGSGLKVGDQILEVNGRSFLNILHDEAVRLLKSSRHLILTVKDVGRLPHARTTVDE

T3: DLG3_1, Q92796
T3 sequence (Q92796 125-227, limits assumed, looked up): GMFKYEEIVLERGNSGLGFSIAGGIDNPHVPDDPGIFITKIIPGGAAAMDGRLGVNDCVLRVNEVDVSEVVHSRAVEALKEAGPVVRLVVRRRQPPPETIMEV

T4: GRIP1_7, Q9Y3R0
T4 sequence (Q9Y3R0 999-1096, limits assumed, looked up): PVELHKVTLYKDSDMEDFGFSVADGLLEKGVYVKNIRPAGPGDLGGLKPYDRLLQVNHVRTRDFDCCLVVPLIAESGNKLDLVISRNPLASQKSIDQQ

T5: HTRA3, P83110
T5 sequence (P83110 354-453, limits assumed, looked up): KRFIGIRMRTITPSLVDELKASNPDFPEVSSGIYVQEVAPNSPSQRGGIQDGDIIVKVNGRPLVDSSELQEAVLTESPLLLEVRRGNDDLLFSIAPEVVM

T6: LIN7C, Q9NUP9
T6 sequence (Q9NUP9 88-185, limits assumed, looked up): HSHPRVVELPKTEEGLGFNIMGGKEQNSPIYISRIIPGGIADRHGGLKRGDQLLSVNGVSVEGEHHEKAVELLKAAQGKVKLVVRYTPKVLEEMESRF

T7: LNX2_3, Q8N448
T7 sequence (Q8N448 463-564, limits assumed, looked up): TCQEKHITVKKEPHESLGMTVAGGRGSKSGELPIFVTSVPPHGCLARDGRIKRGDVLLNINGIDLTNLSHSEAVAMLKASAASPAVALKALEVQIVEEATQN

T8: MPDZ_5, O75970
T8 sequence (O75970 695-796, limits assumed, looked up): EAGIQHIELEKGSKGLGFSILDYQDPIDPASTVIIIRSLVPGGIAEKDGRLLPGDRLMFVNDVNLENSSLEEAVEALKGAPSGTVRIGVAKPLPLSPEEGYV

T9: PARD3B_1, Q8TEW8
T9 sequence (Q8TEW8 196-299, limits assumed, looked up): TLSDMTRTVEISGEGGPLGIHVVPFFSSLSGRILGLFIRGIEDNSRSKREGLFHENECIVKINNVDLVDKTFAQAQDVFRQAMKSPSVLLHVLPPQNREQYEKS

T10: PDZD2_2, O15018
T10 sequence (O15018 329-429, limits assumed, looked up): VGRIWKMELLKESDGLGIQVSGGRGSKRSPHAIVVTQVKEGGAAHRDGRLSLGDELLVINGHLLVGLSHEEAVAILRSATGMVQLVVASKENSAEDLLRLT

T11: SNTA1, Q13424
T11 sequence (Q13424 82-180, limits assumed, looked up): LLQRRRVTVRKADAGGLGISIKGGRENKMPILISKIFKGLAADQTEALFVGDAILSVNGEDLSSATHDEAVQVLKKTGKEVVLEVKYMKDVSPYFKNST

T12: TX1BP3, O14907
T12 sequence (O14907 10-122, limits assumed, looked up): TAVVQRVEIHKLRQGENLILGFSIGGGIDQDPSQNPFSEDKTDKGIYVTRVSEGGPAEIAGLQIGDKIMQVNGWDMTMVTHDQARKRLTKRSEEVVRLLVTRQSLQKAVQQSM


What was measured:
Test in all cases: holdup assay
Design in all cases: key: below the threshold = too weak to quantify, mostly under pKd 3.1 to 4
Conditions in all cases: plain residues with an end cap or a label only (N-terminal biotin on a linker: ado-ado)
ARHGEF11, O15085 = biological target: T1, ARHGEF11, O15085
DFNB31_2, Q9P202 = biological target: T2, DFNB31_2, Q9P202
DLG3_1, Q92796 = biological target: T3, DLG3_1, Q92796
FRMPD2_2, Q68DX3 = biological target: FRMPD2_2, Q68DX3
Chain of FRMPD2_2, Q68DX3 (Q68DX3 944-1038): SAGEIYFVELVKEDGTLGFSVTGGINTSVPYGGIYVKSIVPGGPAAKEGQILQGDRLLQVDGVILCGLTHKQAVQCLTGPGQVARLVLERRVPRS

FRMPD4, Q14CM0 = biological target: FRMPD4, Q14CM0
Chain of FRMPD4, Q14CM0 (Q14CM0 67-160): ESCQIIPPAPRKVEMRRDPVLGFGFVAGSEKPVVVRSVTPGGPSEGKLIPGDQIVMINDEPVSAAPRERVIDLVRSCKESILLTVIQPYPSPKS

GOPC, Q9HD26 = biological target: GOPC, Q9HD26
GORASP2, Q9H8Y8 = biological target: GORASP2, Q9H8Y8
GRID2IP_2, A4D2P6 = biological target: GRID2IP_2, A4D2P6
Chain of GRID2IP_2, A4D2P6 (A4D2P6 272-370): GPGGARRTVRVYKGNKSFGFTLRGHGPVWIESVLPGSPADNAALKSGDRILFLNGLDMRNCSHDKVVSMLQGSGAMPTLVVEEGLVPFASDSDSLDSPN

GRIP1_7, Q9Y3R0 = biological target: T4, GRIP1_7, Q9Y3R0
HTRA3, P83110 = biological target: T5, HTRA3, P83110
Inadl_1, Q8NI35 = biological target: Inadl_1, Q8NI35
Chain of Inadl_1, Q8NI35 (Q8NI35 113-229): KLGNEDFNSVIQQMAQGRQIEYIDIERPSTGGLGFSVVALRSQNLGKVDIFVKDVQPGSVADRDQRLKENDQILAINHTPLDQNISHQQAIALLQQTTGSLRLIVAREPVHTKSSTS

Inadl_3, Q8NI35 = biological target: Inadl_3, Q8NI35
Chain of Inadl_3, Q8NI35 (Q8NI35 359-469): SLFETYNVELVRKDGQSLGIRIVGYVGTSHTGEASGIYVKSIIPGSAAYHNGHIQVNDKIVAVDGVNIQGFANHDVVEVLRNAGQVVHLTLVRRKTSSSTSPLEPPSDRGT

Inadl_5, Q8NI35 = biological target: Inadl_5, Q8NI35
Chain of Inadl_5, Q8NI35 (Q8NI35 673-780): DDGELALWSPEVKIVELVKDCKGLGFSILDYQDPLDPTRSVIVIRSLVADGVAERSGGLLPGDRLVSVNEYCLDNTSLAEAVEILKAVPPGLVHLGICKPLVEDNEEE

LAP2, Q96RT1 = biological target: LAP2, Q96RT1
Chain of LAP2, Q96RT1 (Q96RT1 other isoform, or with tags, fused parts or gaps): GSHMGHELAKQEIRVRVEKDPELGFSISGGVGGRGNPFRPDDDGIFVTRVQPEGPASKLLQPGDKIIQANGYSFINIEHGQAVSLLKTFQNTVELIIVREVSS

LIN7C, Q9NUP9 = biological target: T6, LIN7C, Q9NUP9
LNX2_3, Q8N448 = biological target: T7, LNX2_3, Q8N448
MPDZ_5, O75970 = biological target: T8, MPDZ_5, O75970
NHERF2_2, Q15599 = biological target: NHERF2_2, Q15599
Chain of NHERF2_2, Q15599 (Q15599 142-238): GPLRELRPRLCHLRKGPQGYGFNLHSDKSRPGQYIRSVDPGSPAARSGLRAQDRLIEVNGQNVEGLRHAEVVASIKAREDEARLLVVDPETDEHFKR

PARD3B_1, Q8TEW8 = biological target: T9, PARD3B_1, Q8TEW8
PDZD2_2, O15018 = biological target: T10, PDZD2_2, O15018
SCRIB_2, Q14160 = biological target: SCRIB_2, Q14160
Chain of SCRIB_2, Q14160 (Q14160 857-960): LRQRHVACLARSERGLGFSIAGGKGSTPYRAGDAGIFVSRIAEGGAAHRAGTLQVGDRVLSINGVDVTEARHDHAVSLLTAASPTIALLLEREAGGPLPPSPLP

SNTA1, Q13424 = biological target: T11, SNTA1, Q13424
TJP1_2, Q07157 = biological target: TJP1_2, Q07157
Chain of TJP1_2, Q07157 (Q07157 181-274): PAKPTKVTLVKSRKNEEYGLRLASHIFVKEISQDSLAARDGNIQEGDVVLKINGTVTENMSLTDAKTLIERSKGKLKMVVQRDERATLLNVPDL

TX1BP3, O14907 = biological target: T12, TX1BP3, O14907

Row | pKd (ARHGEF11, O15085) | pKd (DFNB31_2, Q9P202) | pKd (DLG3_1, Q92796) | pKd (FRMPD2_2, Q68DX3) | pKd (FRMPD4, Q14CM0) | pKd (GOPC, Q9HD26) | pKd (GORASP2, Q9H8Y8) | pKd (GRID2IP_2, A4D2P6) | pKd (GRIP1_7, Q9Y3R0) | pKd (HTRA3, P83110) | pKd (Inadl_1, Q8NI35) | pKd (Inadl_3, Q8NI35) | pKd (Inadl_5, Q8NI35) | pKd (LAP2, Q96RT1) | pKd (LIN7C, Q9NUP9) | pKd (LNX2_3, Q8N448) | pKd (MPDZ_5, O75970) | pKd (NHERF2_2, Q15599) | pKd (PARD3B_1, Q8TEW8) | pKd (PDZD2_2, O15018) | Binder | also measured
1 | below the threshold | below the threshold | below the threshold | 3.53 | below the threshold | below the threshold | below the threshold | below the threshold | below the threshold | below the threshold | below the threshold | below the threshold | below the threshold | below the threshold | below the threshold | below the threshold | below the threshold | 4.31 | below the threshold | 4.47 | PLATCDETSI [SEMA4F, O95754] | pKd (SCRIB_2, Q14160): 4.39; pKd (SNTA1, Q13424): 4.01; pKd (TJP1_2, Q07157): below the threshold; pKd (TX1BP3, O14907): below the threshold
2 | 4.52 | 4.53 | below the threshold | below the threshold | 4.35 | 4.43 | below the threshold | 4.62 | below the threshold | below the threshold | below the threshold | below the threshold | below the threshold | 3.85 | 4.83 | below the threshold | below the threshold | 4.56 | 3.88 | below the threshold | GTMFLRETSL [GUCY1A2, P33402] | pKd (SCRIB_2, Q14160): 5.15; pKd (SNTA1, Q13424): 5.64; pKd (TJP1_2, Q07157): below the threshold; pKd (TX1BP3, O14907): 5.31
3 | below the threshold | below the threshold | below the threshold | below the threshold | below the threshold | below the threshold | below the threshold | below the threshold | below the threshold | 3.97 | below the threshold | below the threshold | below the threshold | below the threshold | below the threshold | below the threshold | below the threshold | below the threshold | below the threshold | 4.56 | NSTHNLKDYV [CLDN20, P56880] | pKd (SCRIB_2, Q14160): below the threshold; pKd (SNTA1, Q13424): below the threshold; pKd (TJP1_2, Q07157): below the threshold; pKd (TX1BP3, O14907): below the threshold
4 | 4.94 | below the threshold | below the threshold | below the threshold | below the threshold | below the threshold | below the threshold | below the threshold | below the threshold | 3.72 | below the threshold | 4.52 | below the threshold | below the threshold | below the threshold | 3.61 | below the threshold | 3.69 | 4.86 | below the threshold | GQNMTVSVVI [PRLHR, P49683] | pKd (SCRIB_2, Q14160): below the threshold; pKd (SNTA1, Q13424): 3.89; pKd (TJP1_2, Q07157): 3.69; pKd (TX1BP3, O14907): below the threshold
5 | 4.27 | 3.55 | 3.69 | below the threshold | below the threshold | 4.29 | below the threshold | 4.71 | below the threshold | below the threshold | below the threshold | below the threshold | 3.48 | below the threshold | below the threshold | below the threshold | below the threshold | 4.32 | 3.77 | below the threshold | IKLETKKTKL [SLC15A2, Q16348] | pKd (SCRIB_2, Q14160): below the threshold; pKd (SNTA1, Q13424): 3.59; pKd (TJP1_2, Q07157): below the threshold; pKd (TX1BP3, O14907): 4.02
6 | below the threshold | below the threshold | below the threshold | below the threshold | below the threshold | below the threshold | below the threshold | below the threshold | below the threshold | below the threshold | below the threshold | below the threshold | below the threshold | below the threshold | 3.95 | below the threshold | below the threshold | below the threshold | 4.12 | below the threshold | FVFESRKEIL [TBPL1, P62380] | pKd (SCRIB_2, Q14160): below the threshold; pKd (SNTA1, Q13424): below the threshold; pKd (TJP1_2, Q07157): below the threshold; pKd (TX1BP3, O14907): below the threshold
